Data as given in the supplement of paper PMC12042874.
± gives the uncertainty stated by the source.

Test: amyloid nucleation score (Sup35N fusion, yeast selection) (log enrichment); library NNK3; higher = more nucleation; inactive = no reads after selection
In short: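 Nucleation score is defined as the DiMSum log enrichment of output over input reads, with centring on the mode score of non-aggregating sequences. A minimum of 100 input reads was required for each sequence. Reads came from Illumina sequencing of plasmid inserts from psi-negative yeast expressing Sup35N fused to peptides of 20 random codons, induced with 100 μM copper sulfate for 24 hours and grown 7 days at 30°C on medium lacking adenine and uracil.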

Substance	amyloid nucleation score
SLGSPYRTRGCLNKSPPLAC	inactive
SLGVEVKCNTIP	inactive
SLGVNLSISVGKYEYSLSLK	inactive
SLIVQAL	inactive
SLKPLVYMGLST	inactive
SLLTDTFFIVLWTFT	inactive
SLMDGFLPNSGEFRIKYAVL	inactive
SLNFLR	0.937 ± 0.39
SLNILWRSVCFTGCERGYLG	0.763 ± 0.2
SLPYCGVTSLSHSWVPMAIR	inactive
SLQISLRYKVIMQRMP	1.24 ± 0.16
SLQKWWDSLTHNLMVVTKHG	inactive
SLRPMLYTSYSS	0.914 ± 0.17
SLRSFECFSSCTGLWCMLWG	inactive
SLRSYSDVSVVRFDANSTVS	inactive
SLSILT	inactive
SLSLRWFVGCKGSDGSALQC	inactive
SLSLWESRCQITFPLVIKVE	-0.017 ± 0.7
SLSMATFKAILSLFADTWWR	inactive
SLSNVGLANFLFSRPSLRSY	inactive
SLSPAGSGSFFGKGFWMMLA	inactive
SLSVSYDVLWRIFSGNNGNW	1.25 ± 0.083
SLSWHK	inactive
SLSYFLSFS	1.14 ± 0.085

Substance	amyloid nucleation score
SLTALDNWCRIFAMPVLSWK	inactive
SLTSSFFSSMDVFNSALKGG	inactive
SLTVFLWVAQRVAAMRAGVL	inactive
SLVGRSCLRY	inactive
SLVMAEVITPIGLSFCSNYT	inactive
SLVNGAWLAVMNMSRCLWIF	inactive
SLWHMRVWMLCCKGPKTWRF	inactive
SLYKYRIWCMVFVVYFSQSQ	inactive
SLYVSVLYIYRDY	1.77 ± 0.077
SLYYSTCIK	inactive
SMCGNWGNWASVGWNFCWRV	inactive
SMCNTSLYWLDHGADLLRSL	inactive
SMDWHAYLDRILLYVRSHS	inactive
SMLQAMEYYNIGIVYNHKIW	inactive
SMNFSSWWRLCCDEGSGSYT	0.671 ± 0.19
SMNKFKF	inactive
SMRYVTLKPNF	inactive
SMSFFMSNGRALLYCQMQFA	inactive
SMVFLASLY	inactive
SMVNWFMLRTAVVVQSRVAV	inactive
SMYRYAKETT	inactive
SNAFVYFRFLTFDSRFCCYY	1.56 ± 0.074
SNDHKITD	inactive
SNFGTNSIYMCTAMIPM	inactive

Substance	amyloid nucleation score
SNFTTPLHE	inactive
SNGAGC	inactive
SNIMHQNVTCESFYCRSSLW	1.81 ± 0.067
SNMIRVRWRVAFRGWMARCL	inactive
SNSFLFYFEYSGVKLRRLGL	inactive
SNSFSSSLLCLDARD	inactive
SNSLV	inactive
SNSRVGIFWDRLVFRYCRGM	-0.5 ± 1
SNSVFIWYWPEWVEDWSSWL	0.607 ± 0.16
SNTYCVPYRKGEELVYCGSW	inactive
SNWSWQSPW	inactive
SNWVLACYKI	inactive
SNYPWCSSSYYLGKISDLCS	inactive
SNYVKKQIALS	inactive
SPRKTNEAWPTGLSYETSVA	inactive
SPRLYETRMLPLTMGCGGDD	inactive
SPRRH	inactive
SPSEMIAFWFNSTFVTSASG	-0.46 ± 1.7
SPYPITGLFWCFINWSHKVM	inactive
SQCYCVYAGVVT	0.034 ± 0.51
SQSGELFSDMMVLLG	inactive
SQTLYLGARVNRMRYVFSAC	inactive
SQVGMSPYRSCSINKWCPGI	inactive
SQVVDW	inactive

Substance	amyloid nucleation score
SQWIGFIEGCGNWMGYLACV	inactive
SREIYSMVMQSHLVQWGVIA	inactive
SRELNYVVAWIL	inactive
SRFDRVMQNDCCVYSCHIII	inactive
SRFVYSSGY	inactive
SRIAFKVDFASCRARMCGVE	inactive
SRIGFPICLRRGYVNQDCNG	inactive
SRIIVRN	inactive
SRILGNRMAFTA	inactive
SRISKMSELIYRLRYIVILV	inactive
SRLMRKRISA	inactive
SRMSGVVGIAKV	inactive
SRPFICSPFQIWAFKFTPMN	inactive
SRRVNFLPVVFQHMTWLVLV	inactive
SRSFKRNLVSMVNLGVRDEM	inactive
SRSLLEAWDHGTHAGLHVWS	inactive
SRTFVRECKWGFVCRYKVWV	inactive
SRVISLFSGVCRGLRGYVNR	inactive
SRWEKSFALICAS	inactive
SRYRAEIDARYNFLRGFNAC	-0.449 ± 0.8
SSALRMYVCSAWG	inactive
SSANVDMPVDCDTRWTCW	inactive
SSAPEQRF	inactive
SSARRKNLRYEGVLRTEARV	inactive

Substance	amyloid nucleation score
SSDECYSNHCIWCVKQ	3.16 ± 0.061
SSERSGRRRNWSVRSCLVGQ	inactive
SSGAQQCILISSLVLNEDWL	-0.46 ± 0.76
SSGHAGGYINYSCTFSAYRM	0.786 ± 0.19
SSGSFS	inactive
SSHGSRGITVDT	inactive
SSHVQRMMRLMVAN	inactive
SSIVENGCNTERSPMIGCVS	-0.576 ± 0.88
SSLFLDCGFGV	inactive
SSLIGRVDRIMYVSARERTI	inactive
SSLNSMIIIRFHTSKGHVCK	1.32 ± 0.17
SSLSTNARVDLSMRR	inactive
SSMCVLCWTIVSVRNEAVEG	1.9 ± 0.098
SSNFVFNLPSTWWSYYMTWV	-0.216 ± 0.75
SSNILFVIFIAY	1.08 ± 0.21
SSRSRTRWASNFLAHAYGRF	inactive
SSRTTIQ	inactive
SSSSNANGFNRHYLSVRFGE	inactive
SSSVKEMQQPVTTTLETQST	inactive
SSVRMRISFMINGRQTA	0.833 ± 0.15
SSVWIFRWTICNWESKF	2.45 ± 0.052
SSWMYGFCVSKSSWPRL	-0.272 ± 1.4
STDLVIFMSTLPVCSCYCGQ	1.72 ± 0.08
STFGVVMTSSSD	inactive

Substance	amyloid nucleation score
STFMYVCWRPTYGSYYQTVR	inactive
STGFGE	inactive
STHKFNRNFIMSFAWLFICW	inactive
STIFTVAVFDCNEHLARSKS	inactive
STIVGGSLCFPIASVTFNSC	2.2 ± 0.079
STLASSS	inactive
STLFSPR	0.922 ± 0.14
STMLSYAVWALDMVFSYKVY	-0.509 ± 0.84
STNWSILFQDHSTTFFLMCA	0.279 ± 0.2
STSNFYLWGKPNVLAGMR	inactive
STTFDLARWASVKSVHFCYF	inactive
STTHEYDI	inactive
STWLSNWYY	-0.759 ± 1.1
STYLF	inactive
SVEGQHYKLAVTFVDLYNSI	inactive
SVFFPVEFTFRVGETLCCFF	3.01 ± 0.062
SVGLDRTSQEHSAYVGNVHS	inactive
SVGRSST	inactive
SVHRLFISCKVWGFKVLWPV	inactive
SVIILSCND	inactive
SVIRVMSFG	inactive
SVIRWFVTLWLGEHLRASDT	inactive
SVIYVLYKVW	inactive
SVLFMRRLYSRMA	inactive

Substance	amyloid nucleation score
SVLGRHYVYLLSIVCGVIFG	inactive
SVLMA	inactive
SVMHKSRSRGFNRNDGSVRV	inactive
SVRTLLVTHFLRKPLALI	inactive
SVRWMTGRFVGCRRNQVQFR	0.505 ± 0.38
SVSFVDSRLLYVKICLSALG	inactive
SVSLYLNLVSLVYCLVCP	1.26 ± 0.14
SVVLIMKICTVEGYDPQLLF	inactive
SVYLGFIVGSVHPTHVISMR	inactive
SVYPYESYLVW	inactive
SVYVNAYEHNKGGFTRNIHI	inactive
SWAYL	inactive
SWDYSKRNCSVEKVWTELNF	inactive
SWEFPTDKSYMSCREPENPM	inactive
SWFALSLIIKTRVWT	inactive
SWGMLSY	inactive
SWIVLYRMDS	inactive
SWIVNKVF	inactive
